{"source": "patent US10471162B2", "about": "“Collagen targeted imaging probes” (priority 2014, dated 2019)", "key": {"[1]": {"tested_on": "pulmonary fibrosis, C57Bl/6 mice (low dose bleomycin, FTY720)", "assay": "in vivo", "design": "species or system mouse", "procedure": "Adult male C57Bl/6 mice were administered a single intratracheal dose of low dose bleomycin at 0.1 U/kg (low dose), in a total volume of 50 μl sterile saline. FTY720 was administered intraperitoneally to the mice at 1 mg/kg three times a week. Animals were placed in a small-animal PET/SPECT/CT scanner (Triumph; TriFoil Imaging), equipped with inhalation anesthesia and heating pad. Each animal was anesthetized with isoflurane (4% for induction, 2-2.5% for maintenance in medical air) and body temperature was kept at 37-38° C. using a heating pad. The femoral vein was cannulated for intravenous delivery of the PET agent. Each mouse was injected with approximately 0.1 mL and 20-50 μCi of ^64Cu-CBP(n), 0.1 mL and 20-50 μCi of ^68Ga-CBP(n) and 0.1 mL and 10-20 μCi of Al^18F-CBP(n) in a 18 mM solution of sucrose in water, followed by saline flush. […] The lungs, blood, urine, heart, liver, left rectus femoris muscle, spleen, small intestine, kidneys, left femur bone were collected from all animals. The tissues were weighed, and radioactivity in each tissue was measured on a gamma counter (CobraII Auto gamma; Packard). The radioactivity in the lung was reported as percent injected dose per gram corrected with the average sham weight, which was calculated by dividing the counts of ^64Cu per average sham tissue weight in gram by the total of counts of the injected dose. The radioactivity in every other tissue was reported as percent injected dose per gram (% ID/g), which was calculated by dividing the counts of ^64Cu per gram of tissue by the total of counts of the injected dose. A p-value of less than 0.05 was considered significant. Uncertainties are expressed as the standard error of the mean."}, "[2]": {"tested_on": "pulmonary fibrosis, low dose bleomycin, vascular leak model", "conditions": "male, C57Bl/6, mouse, in vivo, iv", "procedure": "Adult male C57Bl/6 mice were administered a single intratracheal dose of low dose bleomycin at 0.1 U/kg (low dose), in a total volume of 50 μl sterile saline. FTY720 was administered intraperitoneally to the mice at 1 mg/kg three times a week. To effect treatment in the low dose bleomycin, vascular leak model, the therapeutic murine antibody 3G9 (alpha-v-beta6 blocking antibody) and 1E6 (matched isotype control antibody) were used. Antibodies were injected into mice intraperitoneally three times week at a concentration of 1 mg/kg. All administrations of FTY720 and antibodies were initiated on day 0, ˜30 minutes before bleomycin challenge and continued throughout the duration of the experiments. Animals were placed in a small-animal PET/SPECT/CT scanner (Triumph; TriFoil Imaging), equipped with inhalation anesthesia and heating pad. […] Instrument calibration was performed with phantoms containing small known amounts of radioactivity. […] Reconstructed PET/CT data were quantitatively evaluated using AMIDE software package (Loening and Gambhir, 2003). […] The radioactivity concentration within organs was obtained from mean pixel values within the VOI volume and converted to counts per milliliter per minute and then divided by the injected dose (ID) to obtain an imaging VOI-derived percentage of the injected radioactive dose per cubic centimeter of tissue (% ID/cc). […]"}, "[3]": {"conditions": "male, C57Bl/6, mouse, iv, 2.5 h"}}, "data": [{"smiles": "CC(C)C[C@H](NC(=O)[C@@H]1CSSC[C@H](NC(=O)[C@H](Cc2c[nH]cn2)NC(=O)[C@H](Cc2c[nH]c3ccccc23)NC(=O)[C@H](CCCCNC(=O)CNC(=O)CCC(C(=O)O)N2CCN(CC(=O)O)CCN(CC(=O)O)CC2)NC(=O)CNC(=O)CCC(C(=O)O)N2CCN(CC(=O)O)CCN(CC(=O)O)CC2)C(=O)N[C@@H]([C@@H](C)O)C(=O)N[C@@H]([C@@H](C)O)C(=O)N[C@@H](CCCCNC(=O)CCC(C(=O)O)N2CCN(CC(=O)O)CCN(CC(=O)O)CC2)C(=O)N[C@@H](Cc2ccccc2)C(=O)N2CCC[C@H]2C(=O)N[C@@H](Cc2c[nH]cn2)C(=O)N[C@@H](Cc2c[nH]cn2)C(=O)N[C@@H](Cc2ccc(O)cc2)C(=O)N1)C(=O)N[C@@H](Cc1ccc(O)cc1)C(=O)N[C@@H](Cc1ccc(-c2ccccc2)cc1)C(N)=O", "note": "(single isomer, unassigned) [CBP8]", "values": [{"measurement": "Biodistribution % ID/g, blood", "setting": "[1]; [3]", "result": "0.523 ± 0.062", "unit": "% ID/g"}, {"measurement": "Biodistribution % ID/g, heart", "setting": "[1]; [3]", "result": "0.340 ± 0.038", "unit": "% ID/g"}, {"measurement": "Biodistribution % ID/g, kidney", "setting": "[1]; [3]", "result": "50.36 ± 2.756", "unit": "% ID/g"}, {"measurement": "Biodistribution % ID/g, liver", "setting": "[1]; [3]", "result": "1.998 ± 0.117", "unit": "% ID/g"}, {"measurement": "Biodistribution % ID/g, small intest.", "setting": "[1]; [3]", "result": "0.690 ± 0.064", "unit": "% ID/g"}, {"measurement": "Biodistribution % ID/g, spleen", "setting": "[1]; [3]", "result": "0.925 ± 0.126", "unit": "% ID/g"}, {"measurement": "organ uptake between groups, except lungs, in words", "setting": "[1]; mouse", "result": "not significantly different"}, {"measurement": "mean lung PET activity", "setting": "[2]", "result": "2.07 ± 0.53", "unit": "% ID/cc"}]}]}
